Test results published in paper PMC3526290.

System: H3/H4 (FM label on H4 C71) (Xenopus laevis)
Test: EMSA
Conditions: 0.2 uM H3/H4, 0.4 uM DNA, no chaperone, disome and tetrasome, EMSA deposition: 10 mM Tris, 150 mM NaCl, 0.5 mM TCEP, pH 8.0, on ice, 0.2x TBE native gel, FRET: 10 mM Tris pH 7.5, 150 mM KCl, 2 mM MgCl, 1% glycerol

In the case of 80 bp 601 DNA, the binding signal is reported as 44 % tetrasomes.
